# Test results: the supplement of paper PMC10567573
# B1: NEUROD6 (parent)
# chain: YHSPELTTPPGHGTLDNSKSMKPY
# Variants of: B1
# Assay: protein stability index of a GFP-peptide fusion (GPS, HEK-293T) (PSI 1-6); higher = more stable
# Settings: c terminus: a fixed tail appended
# 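Further: lentivirally expressed fusions sorted by FACS into six bins by GFP to DsRed ratio, PSI derived from sequencing read proportions per bin multiplied by bin number.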
row,Variant,protein stability index
1,YHSPELTTPPGHGTLDNSNSMKPY [K19N],2.44
2,YHSPELTTPPGHGTLDNSYSMKPY [K19Y],1.9
3,YHSPELTTPPGHGTLDNSISMKPY [K19I],2.33
4,YHSPELTTPPGHGTLDNSMSMKPY [K19M],2.37
5,YHSPELTTPPGHGTLDNSESMKPY [K19E],2.59
6,YHSPELTTPPGHGTLDNSPSMKPY [K19P],2.22
7,YHSPELTTPPGHGTLDNSFSMKPY [K19F],1.85
8,YHSPELTTPPGHGTLDNSHSMKPY [K19H],2.07
9,YHSPELTTPPGHGTLDNSVSMKPY [K19V],2.39
10,YHSPELTTPPGHGTLDNSASMKPY [K19A],2.3
11,YHSPELTTPPGHGTLDNSRSMKPY [K19R],1.92
12,YHSPELTTPPGHGTLDNSWSMKPY [K19W],1.5
13,YHSPELTTPPGHGTLDNSLSMKPY [K19L],1.96
14,YHSPELTTPPGHGTLDNSQSMKPY [K19Q],2.24
15,YHSPELTTPPGHGTLDNSGSMKPY [K19G],2.21
16,YHSPELTTPPGHGTLDNSSSMKPY [K19S],2.17
17,YHSPELTTPPGHGTLDNSTSMKPY [K19T],2.35
18,YHSPELTTPPGHGTLDNSDSMKPY [K19D],2.85
19,YHSPELTTPPGHGTLDNSCSMKPY [K19C],2.05
20,YHSPELTTPPGHGTLDNSKSMKEY [P23E],2.41
21,YHSPELTTPPGHGTLDNSKSMKKY [P23K],2.33
22,YHSPELTTPPGHGTLDNSKSMKYY [P23Y],1.77
23,YHSPELTTPPGHGTLDNSKSMKSY [P23S],1.9
24,YHSPELTTPPGHGTLDNSKSMKHY [P23H],2.24

row,Variant,protein stability index
1,YHSPELTTPPGHGTLDNSKSMKFY [P23F],2.33
2,YHSPELTTPPGHGTLDNSKSMKIY [P23I],1.69
3,YHSPELTTPPGHGTLDNSKSMKLY [P23L],2.44
4,YHSPELTTPPGHGTLDNSKSMKWY [P23W],2.67
5,YHSPELTTPPGHGTLDNSKSMKQY [P23Q],2.08
6,YHSPELTTPPGHGTLDNSKSMKRY [P23R],1.99
7,YHSPELTTPPGHGTLDNSKSMKMY [P23M],1.98
8,YHSPELTTPPGHGTLDNSKSMKCY [P23C],1.87
9,YHSPELTTPPGHGTLDNSKSMKDY [P23D],2.28
10,YHSPELTTPPGHGTLDNSKSMKGY [P23G],2.23
11,YHSPELTTPPGHGTLDNSKSMKVY [P23V],2.18
12,YHSPELTTPPGHGTLDNSKSMKNY [P23N],2.36
13,YHSPELTTPPGHGTLDNSKSMKTY [P23T],1.77
14,YHSPELTTPPGHGTLDNSKSMKAY [P23A],2.36
15,YHSPELTTPPGHGTLDNSKWMKPY [S20W],1.97
16,YHSPELTTPPGHGTLDNSKDMKPY [S20D],2.28
17,YHSPELTTPPGHGTLDNSKFMKPY [S20F],1.9
18,YHSPELTTPPGHGTLDNSKHMKPY [S20H],1.87
19,YHSPELTTPPGHGTLDNSKIMKPY [S20I],1.7
20,YHSPELTTPPGHGTLDNSKTMKPY [S20T],2.87
21,YHSPELTTPPGHGTLDNSKYMKPY [S20Y],2.23
22,YHSPELTTPPGHGTLDNSKKMKPY [S20K],1.94
23,YHSPELTTPPGHGTLDNSKMMKPY [S20M],2.43
24,YHSPELTTPPGHGTLDNSKEMKPY [S20E],2.54

row,Variant,protein stability index
1,YHSPELTTPPGHGTLDNSKNMKPY [S20N],2.33
2,YHSPELTTPPGHGTLDNSKGMKPY [S20G],2.28
3,YHSPELTTPPGHGTLDNSKRMKPY [S20R],1.4
4,YHSPELTTPPGHGTLDNSKVMKPY [S20V],1.92
5,YHSPELTTPPGHGTLDNSKAMKPY [S20A],2.04
6,YHSPELTTPPGHGTLDNSKQMKPY [S20Q],2.48
7,YHSPELTTPPGHGTLDNSKPMKPY [S20P],2.3
8,YHSPELTTPPGHGTLDNSKLMKPY [S20L],1.79
9,YHSPELTTPPGHGTLDNSKCMKPY [S20C],1.86
10,YHSPELTTPPGHGTLDASKSMKPY [N17A],2.51
11,YHSPELTTPPGHGTLDTSKSMKPY [N17T],2.15
12,YHSPELTTPPGHGTLDYSKSMKPY [N17Y],1.88
13,YHSPELTTPPGHGTLDHSKSMKPY [N17H],1.99
14,YHSPELTTPPGHGTLDPSKSMKPY [N17P],2.15
15,YHSPELTTPPGHGTLDLSKSMKPY [N17L],1.72
16,YHSPELTTPPGHGTLDVSKSMKPY [N17V],2.15
17,YHSPELTTPPGHGTLDISKSMKPY [N17I],2.23
18,YHSPELTTPPGHGTLDQSKSMKPY [N17Q],2.52
19,YHSPELTTPPGHGTLDDSKSMKPY [N17D],2.21
20,YHSPELTTPPGHGTLDRSKSMKPY [N17R],2.01
21,YHSPELTTPPGHGTLDMSKSMKPY [N17M],1.55
22,YHSPELTTPPGHGTLDGSKSMKPY [N17G],2.68
23,YHSPELTTPPGHGTLDKSKSMKPY [N17K],2.14
24,YHSPELTTPPGHGTLDESKSMKPY [N17E],2.68

row,Variant,protein stability index
1,YHSPELTTPPGHGTLDCSKSMKPY [N17C],1.69
2,YHSPELTTPPGHGTLDWSKSMKPY [N17W],2.51
3,YHSPELTTPPGHGTLDSSKSMKPY [N17S],2.3
4,YHSPELTTPPGHGTLDFSKSMKPY [N17F],2.14
5,YHSPELTTPPGHGTLDNSKSMKPC [Y24C],2.38
6,YHSPELTTPPGHGTLDNSKSMKPD [Y24D],2.44
7,YHSPELTTPPGHGTLDNSKSMKPA [Y24A],2.24
8,YHSPELTTPPGHGTLDNSKSMKPE [Y24E],2.91
9,YHSPELTTPPGHGTLDNSKSMKPM [Y24M],2.02
10,YHSPELTTPPGHGTLDNSKSMKPW [Y24W],1.98
11,YHSPELTTPPGHGTLDNSKSMKPR [Y24R],2.48
12,YHSPELTTPPGHGTLDNSKSMKPG [Y24G],2.67
13,YHSPELTTPPGHGTLDNSKSMKPH [Y24H],2.45
14,YHSPELTTPPGHGTLDNSKSMKPL [Y24L],2.27
15,YHSPELTTPPGHGTLDNSKSMKPK [Y24K],2.23
16,YHSPELTTPPGHGTLDNSKSMKPF [Y24F],2.21
17,YHSPELTTPPGHGTLDNSKSMKPN [Y24N],2.44
18,YHSPELTTPPGHGTLDNSKSMKPT [Y24T],2.55
19,YHSPELTTPPGHGTLDNSKSMKPQ [Y24Q],2.62
20,YHSPELTTPPGHGTLDNSKSMKPV [Y24V],2.41
21,YHSPELTTPPGHGTLDNSKSMKPI [Y24I],2.21
22,YHSPELTTPPGHGTLDNSKSMKPS [Y24S],2.36
